Measurements as given in patent US20220048967A1 (published 2022).
Substitutions are numbered along the chain they refer to. Numbered stars: 1 amine (or outer) side, 2 acyl side, 3 side chain; on linkers, the order of the positions; unused ones are H or OH. Square brackets hold non-standard residues; d marks the D form. Side chains are listed from the residue outwards. Ends that are not written are not given here. * marks the point of attachment. C20 diacid = O=C(O)CCCCCCCCCCCCCCCCCCC(=O)*; αMePhe(2-F) = C[C@](N)(Cc1ccccc1F)C(=O)O; γGlu = O=C(O)[C@H](CCC(=O)[*:2])N[*:1]; Desaminohistidyl = O=C(CCc1c[nH]cn1)*; αMeF = C[C@](N)(Cc1ccccc1)C(=O)O; AEEA = NCCOCCOCC(=O)O; Aib = CC(C)(N)C(=O)O

B1: Example 5 (peptide)
peptide: YXEGTXTSDVSIXLDXKAQXEFIXXLIEGGPSSGAPPPS
modifications: Aib2; αMeF(2F)6; αMeL13; Orn16; K17((2-[2-(2-Amino-ethoxy)-ethoxy]-acetyl)2-(γ-Glu)-CO-(CH2)16-CO2H); Aib20; D-Glu24; αMeY25; C-terminal NH2
B2: Example 101 (peptide)
peptide: Y[Aib]EGT[αMePhe(2-F)]TSDYSI[Aib]LDEK([AEEA-AEEA-γGlu-C20 diacid])AQ[Aib]AFIEYLIEGG-NH2
modifications: N-terminus assumed
SMILES: CC[C@H](C)[C@H](NC(=O)[C@H](CC(C)C)NC(=O)[C@H](Cc1ccc(O)cc1)NC(=O)[C@H](CCC(=O)O)NC(=O)[C@@H](NC(=O)[C@H](Cc1ccccc1)NC(=O)[C@H](C)NC(=O)C(C)(C)NC(=O)[C@H](CCC(N)=O)NC(=O)[C@H](C)NC(=O)[C@H](CCCCNC(=O)COCCOCCNC(=O)COCCOCCNC(=O)CC[C@H](NC(=O)CCCCCCCCCCCCCCCCCCC(=O)O)C(=O)O)NC(=O)[C@H](CCC(=O)O)NC(=O)[C@H](CC(=O)O)NC(=O)[C@H](CC(C)C)NC(=O)C(C)(C)NC(=O)[C@@H](NC(=O)[C@H](CO)NC(=O)[C@H](Cc1ccc(O)cc1)NC(=O)[C@H](CC(=O)O)NC(=O)[C@H](CO)NC(=O)[C@@H](NC(=O)[C@](C)(Cc1ccccc1F)NC(=O)[C@@H](NC(=O)CNC(=O)[C@H](CCC(=O)O)NC(=O)C(C)(C)NC(=O)[C@@H](N)Cc1ccc(O)cc1)[C@@H](C)O)[C@@H](C)O)[C@@H](C)CC)[C@@H](C)CC)C(=O)N[C@@H](CCC(=O)O)C(=O)NCC(=O)NCC(N)=O
B3: Example 98 (peptide)
peptide: YXEGTXTSDYSILLDKKAQXAFIEYLIEGG
modifications: Aib2; αMeF6; K17((2-[2-(2-Amino-ethoxy)-ethoxy]-acetyl)2-(γ-Glu)-CO-(CH2)18-CO2H); Aib20; C-terminal NH2
B4: Example 94 (peptide)
peptide: B3 peptide with K17I, A21K
modifications: Aib2; αMeF6; Aib20; K21((2-[2-(2-Amino-ethoxy)-ethoxy]-acetyl)2-(γ-Glu)-CO-(CH2)18-CO2H); C-terminal NH2
B5: Example 95 (peptide)
peptide: B3 peptide with K17I, E28K
modifications: Aib2; αMeF6; Aib20; K28((2-[2-(2-Amino-ethoxy)-ethoxy]-acetyl)2-(γ-Glu)-CO-(CH2)18-CO2H); C-terminal NH2
B6: Example 92 (peptide)
peptide: Y[Aib]EGT[αMeF]TSDK([AEEA-AEEA-γGlu-C20 diacid])SILLDKIAQ[Aib]AFIEYLIEGG-NH2
modifications: N-terminus assumed
SMILES: CC[C@H](C)[C@H](NC(=O)[C@H](CCCCN)NC(=O)[C@H](CC(=O)O)NC(=O)[C@H](CC(C)C)NC(=O)[C@H](CC(C)C)NC(=O)[C@@H](NC(=O)[C@H](CO)NC(=O)[C@H](CCCCNC(=O)COCCOCCNC(=O)COCCOCCNC(=O)CC[C@H](NC(=O)CCCCCCCCCCCCCCCCCCC(=O)O)C(=O)O)NC(=O)[C@H](CC(=O)O)NC(=O)[C@H](CO)NC(=O)[C@@H](NC(=O)[C@](C)(Cc1ccccc1)NC(=O)[C@@H](NC(=O)CNC(=O)[C@H](CCC(=O)O)NC(=O)C(C)(C)NC(=O)[C@@H](N)Cc1ccc(O)cc1)[C@@H](C)O)[C@@H](C)O)[C@@H](C)CC)C(=O)N[C@@H](C)C(=O)N[C@@H](CCC(N)=O)C(=O)NC(C)(C)C(=O)N[C@@H](C)C(=O)N[C@@H](Cc1ccccc1)C(=O)N[C@H](C(=O)N[C@@H](CCC(=O)O)C(=O)N[C@@H](Cc1ccc(O)cc1)C(=O)N[C@@H](CC(C)C)C(=O)N[C@H](C(=O)N[C@@H](CCC(=O)O)C(=O)NCC(=O)NCC(N)=O)[C@@H](C)CC)[C@@H](C)CC
B7: Example 93 (peptide)
peptide: Y[Aib]EGT[αMeF]TSDYSILK([AEEA-AEEA-γGlu-C20 diacid])DKIAQ[Aib]AFIEYLIEGG-NH2
modifications: N-terminus assumed
SMILES: CC[C@H](C)[C@H](NC(=O)[C@H](CCCCN)NC(=O)[C@H](CC(=O)O)NC(=O)[C@H](CCCCNC(=O)COCCOCCNC(=O)COCCOCCNC(=O)CC[C@H](NC(=O)CCCCCCCCCCCCCCCCCCC(=O)O)C(=O)O)NC(=O)[C@H](CC(C)C)NC(=O)[C@@H](NC(=O)[C@H](CO)NC(=O)[C@H](Cc1ccc(O)cc1)NC(=O)[C@H](CC(=O)O)NC(=O)[C@H](CO)NC(=O)[C@@H](NC(=O)[C@](C)(Cc1ccccc1)NC(=O)[C@@H](NC(=O)CNC(=O)[C@H](CCC(=O)O)NC(=O)C(C)(C)NC(=O)[C@@H](N)Cc1ccc(O)cc1)[C@@H](C)O)[C@@H](C)O)[C@@H](C)CC)C(=O)N[C@@H](C)C(=O)N[C@@H](CCC(N)=O)C(=O)NC(C)(C)C(=O)N[C@@H](C)C(=O)N[C@@H](Cc1ccccc1)C(=O)N[C@H](C(=O)N[C@@H](CCC(=O)O)C(=O)N[C@@H](Cc1ccc(O)cc1)C(=O)N[C@@H](CC(C)C)C(=O)N[C@H](C(=O)N[C@@H](CCC(=O)O)C(=O)NCC(=O)NCC(N)=O)[C@@H](C)CC)[C@@H](C)CC
B8: Example 6 (peptide)
peptide: Y[Aib]EGTFTSDYSILLDKK([AEEA-AEEA-γGlu-C20 diacid])AQ[Aib]AFIEYLLEGGPSSGAPPPS-NH2
modifications: N-terminus assumed
SMILES: CC[C@H](C)[C@H](NC(=O)[C@H](Cc1ccccc1)NC(=O)[C@H](C)NC(=O)C(C)(C)NC(=O)[C@H](CCC(N)=O)NC(=O)[C@H](C)NC(=O)[C@H](CCCCNC(=O)COCCOCCNC(=O)COCCOCCNC(=O)CC[C@H](NC(=O)CCCCCCCCCCCCCCCCCCC(=O)O)C(=O)O)NC(=O)[C@H](CCCCN)NC(=O)[C@H](CC(=O)O)NC(=O)[C@H](CC(C)C)NC(=O)[C@H](CC(C)C)NC(=O)[C@@H](NC(=O)[C@H](CO)NC(=O)[C@H](Cc1ccc(O)cc1)NC(=O)[C@H](CC(=O)O)NC(=O)[C@H](CO)NC(=O)[C@@H](NC(=O)[C@H](Cc1ccccc1)NC(=O)[C@@H](NC(=O)CNC(=O)[C@H](CCC(=O)O)NC(=O)C(C)(C)NC(=O)[C@@H](N)Cc1ccc(O)cc1)[C@@H](C)O)[C@@H](C)O)[C@@H](C)CC)C(=O)N[C@@H](CCC(=O)O)C(=O)N[C@@H](Cc1ccc(O)cc1)C(=O)N[C@@H](CC(C)C)C(=O)N[C@@H](CC(C)C)C(=O)N[C@@H](CCC(=O)O)C(=O)NCC(=O)NCC(=O)N1CCC[C@H]1C(=O)N[C@@H](CO)C(=O)N[C@@H](CO)C(=O)NCC(=O)N[C@@H](C)C(=O)N1CCC[C@H]1C(=O)N1CCC[C@H]1C(=O)N1CCC[C@H]1C(=O)N[C@@H](CO)C(N)=O
B9: Example 102 (peptide)
peptide: Y[Aib]EGT[αMeF]TSDYSI[Aib]LDEK([AEEA-AEEA-γGlu-C20 diacid])AQ[Aib]AFIEYLIEGG-NH2
modifications: N-terminus assumed
SMILES: CC[C@H](C)[C@H](NC(=O)[C@H](CC(C)C)NC(=O)[C@H](Cc1ccc(O)cc1)NC(=O)[C@H](CCC(=O)O)NC(=O)[C@@H](NC(=O)[C@H](Cc1ccccc1)NC(=O)[C@H](C)NC(=O)C(C)(C)NC(=O)[C@H](CCC(N)=O)NC(=O)[C@H](C)NC(=O)[C@H](CCCCNC(=O)COCCOCCNC(=O)COCCOCCNC(=O)CC[C@H](NC(=O)CCCCCCCCCCCCCCCCCCC(=O)O)C(=O)O)NC(=O)[C@H](CCC(=O)O)NC(=O)[C@H](CC(=O)O)NC(=O)[C@H](CC(C)C)NC(=O)C(C)(C)NC(=O)[C@@H](NC(=O)[C@H](CO)NC(=O)[C@H](Cc1ccc(O)cc1)NC(=O)[C@H](CC(=O)O)NC(=O)[C@H](CO)NC(=O)[C@@H](NC(=O)[C@](C)(Cc1ccccc1)NC(=O)[C@@H](NC(=O)CNC(=O)[C@H](CCC(=O)O)NC(=O)C(C)(C)NC(=O)[C@@H](N)Cc1ccc(O)cc1)[C@@H](C)O)[C@@H](C)O)[C@@H](C)CC)[C@@H](C)CC)C(=O)N[C@@H](CCC(=O)O)C(=O)NCC(=O)NCC(N)=O
B10: Example 107 (peptide)
peptide: XXEGTFTSDYSILLDKKAQXAFIEYLIEGGPSSGAPPPS
modifications: DesTyr1; Aib2; K17((2-[2-(2-Amino-ethoxy)-ethoxy]-acetyl)2-(γ-Glu)-CO-(CH2)18-CO2H); Aib20; C-terminal NH2
B11: Example 112 (peptide)
peptide: B10 peptide with X1Y
modifications: Aib2; K17((2-[2-(2-Amino-ethoxy)-ethoxy]-acetyl)-(ϵK)-(γ-Glu)-CO-(CH2)18-CO2H); Aib20; C-terminal NH2
B12: Example 110 (peptide)
peptide: B10 peptide with X1Y
modifications: Aib2; K17((2-[2-(2-Amino-ethoxy)-ethoxy]-acetyl)-(γ-Glu)-(Trx)-CO-(CH2)18-CO2H); Aib20; C-terminal NH2

Molecular target: T1, human GIP receptor (human, UniProt P48546 22-466)
T1 sequence (looked up): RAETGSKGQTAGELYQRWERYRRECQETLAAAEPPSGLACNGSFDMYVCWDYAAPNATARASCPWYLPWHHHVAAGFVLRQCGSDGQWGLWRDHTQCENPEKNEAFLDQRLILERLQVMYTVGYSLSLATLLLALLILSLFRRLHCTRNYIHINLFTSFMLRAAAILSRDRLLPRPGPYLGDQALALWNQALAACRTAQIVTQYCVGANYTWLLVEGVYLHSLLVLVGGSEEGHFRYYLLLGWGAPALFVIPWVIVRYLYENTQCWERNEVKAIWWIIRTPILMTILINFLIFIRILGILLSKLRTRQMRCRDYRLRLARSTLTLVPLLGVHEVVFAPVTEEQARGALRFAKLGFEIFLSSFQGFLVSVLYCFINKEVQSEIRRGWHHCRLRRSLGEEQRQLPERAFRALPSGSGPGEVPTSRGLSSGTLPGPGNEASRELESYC
Experiment: cell-based or functional assay

Binder	hGIPR cAMP EC50 ratio	hGIPR cAMP Rel EC50 [pM]
B1	6.27	30.9
B2	2.07	70.4
B3	2.43	71.8
B4	0.434	425
B5	0.145	1170
B6	0.546	338
[Desaminohistidyl][Aib]EGTFTSDYSILLDKK([AEEA-AEEA-γGlu-C20 diacid])AQ[Aib]AFIEYLIEGGPSSGAPPPS-NH2 (also: ψ[NHCO] bond between DesHis1 and Aib2) [Example 105]	0.101	1850
B7	0.956	185
B8	2.09	89.9
[Desaminohistidyl][Aib]EGTFTSDYSILLDKK([AEEA-AEEA-γGlu-C20 diacid])AQ[Aib]AFIEYLIEGGPSSGAPPPS-NH2 [Example 106]	0.0302	6540
B9	0.983	178
B10	0.747	241
B11	–	124
B12	–	218

Molecular target: human GLP-1 receptor (human, UniProt P43220 24-463)
Experiment: cell-based or functional assay

Binder	hGLP1R cAMP EC50 ratio	hGLP1R cAMP Rel EC50 [pM]
B1	2.69	16.4
B2	1.06	57.9
B3	0.384	157
B4	0.196	338
B5	0.0576	1010
B6	0.258	257
[Desaminohistidyl][Aib]EGTFTSDYSILLDKK([AEEA-AEEA-γGlu-C20 diacid])AQ[Aib]AFIEYLIEGGPSSGAPPPS-NH2 (also: ψ[NHCO] bond between DesHis1 and Aib2) [Example 105]	1.51	40.1
B7	0.498	115
B8	0.185	374
[Desaminohistidyl][Aib]EGTFTSDYSILLDKK([AEEA-AEEA-γGlu-C20 diacid])AQ[Aib]AFIEYLIEGGPSSGAPPPS-NH2 [Example 106]	1.42	41.3
B9	0.913	62.8
B10	1.1	53.9
B11	–	160
B12	–	179
